Key:
LiaR = molecular target: T1, LiaR (Streptococcus mutans, UniProt Q8DVJ8); assay: Phos-Tag SDS-PAGE mobility shift (phosphorylation of LiaR); format: biochemical; conditions: 20 mM MnCl2, 50 mM Tris-Cl, 50 mM KCl, 1 mM DTT, pH 7.5, 37 °C, 1 h, phosphodonor, covalent phosphorylation
T1 construct: gene SMU_487; ORF from start codon, N-terminal His tag, E. coli BL21, Ni-NTA (pASK-IBA43+, pIBE11)

[1] = molecular target: T2, His-LiaR (Streptococcus mutans UA159) (UniProt Q8DVJ8); assay: EMSA; conditions: 20 mM Tris-Cl pH 7.5, 100 mM NaCl, 0.01 mM DTT, 5% glycerol, 1 mM EDTA, 0.01 mg/ml BSA, 5 mM MgCl2, 10 ug/ml poly(dI-dC), 30 min (EMSA); BLI in binding buffer …
T2 sequence: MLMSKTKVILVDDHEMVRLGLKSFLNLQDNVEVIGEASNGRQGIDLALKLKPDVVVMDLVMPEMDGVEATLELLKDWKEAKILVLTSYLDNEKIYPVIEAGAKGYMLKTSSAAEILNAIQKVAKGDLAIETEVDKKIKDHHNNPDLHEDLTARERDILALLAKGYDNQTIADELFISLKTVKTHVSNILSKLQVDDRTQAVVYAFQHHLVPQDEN

[2] = molecular target: T2, His-LiaR (Streptococcus mutans UA159); assay: competition; conditions: 20 mM Tris-Cl pH 7.5, 100 mM NaCl, 0.01 mM DTT, 5% glycerol, 1 mM EDTA, 0.01 mg/ml BSA, 5 mM MgCl2, 10 ug/ml poly(dI-dC), 30 min (EMSA); BLI in binding buffer …
[3] = molecular target: T3, His-LiaR-D58A D58A (Streptococcus mutans UA159) (UniProt Q8DVJ8); assay: EMSA; conditions: 20 mM Tris-Cl pH 7.5, 100 mM NaCl, 0.01 mM DTT, 5% glycerol, 1 mM EDTA, 0.01 mg/ml BSA, 5 mM MgCl2, 10 ug/ml poly(dI-dC), 30 min (EMSA); BLI in binding buffer …
T3 sequence: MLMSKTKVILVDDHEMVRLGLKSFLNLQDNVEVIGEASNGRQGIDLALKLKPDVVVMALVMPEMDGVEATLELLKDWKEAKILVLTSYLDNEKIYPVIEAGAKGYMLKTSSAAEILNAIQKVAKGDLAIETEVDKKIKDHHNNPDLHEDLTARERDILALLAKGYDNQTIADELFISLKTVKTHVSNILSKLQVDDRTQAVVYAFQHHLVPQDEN

His-LiaR [4] = molecular target: T4, His-LiaR (Streptococcus mutans UA159, UniProt Q8DVJ8 1-215); assay: EMSA; 15-30 pmol LiaR; 20 mM Tris-Cl pH 7.5, 100 mM NaCl, 0.01 mM DTT, 5% glycerol, 1 mM EDTA, 0.01 mg/ml BSA, 5 mM MgCl2, 10 ug/ml poly(dI-dC), 30 min (EMSA); BLI in binding buffer; conditions: protein: recombinant; tags: N-terminal His; chain copies: 2; label: 32P end label
His-LiaR [5] = molecular target: T4, His-LiaR; assay: BLI; 1 uM LiaR; 20 mM Tris-Cl pH 7.5, 100 mM NaCl, 0.01 mM DTT, 5% glycerol, 1 mM EDTA, 0.01 mg/ml BSA, 5 mM MgCl2, 10 ug/ml poly(dI-dC), 30 min (EMSA); BLI in binding buffer; conditions: protein: recombinant; tags: N-terminal His; chain copies: 2; label: 32P end label (EMSA); 3' biotin on one strand (BLI)
His-LiaR [6] = molecular target: T4, His-LiaR; assay: BLI; 1 uM LiaR; Req reduced 3-fold; 20 mM Tris-Cl pH 7.5, 100 mM NaCl, 0.01 mM DTT, 5% glycerol, 1 mM EDTA, 0.01 mg/ml BSA, 5 mM MgCl2, 10 ug/ml poly(dI-dC), 30 min (EMSA); BLI in binding buffer; conditions: protein: recombinant; tags: N-terminal His; chain copies: 2; label: 32P end label (EMSA); 3' biotin on one strand (BLI)

For `CC(=O)OP(=O)(O)O` [Ac-Po4, acetyl phosphate], the “Phos-Tag SDS-PAGE mobility shift (phosphorylation of LiaR)” value (LiaR; 50 mM acetyl phosphate) was “The wild-type protein readily acquired phosphate from both acetyl phosphate and phosphoamidate”.

For `NP(=O)(O)O` [PA, phosphoamidate], the “Phos-Tag SDS-PAGE mobility shift (phosphorylation of LiaR)” value (LiaR; 20 mM phosphoamidate) was “The wild-type protein readily acquired phosphate from both acetyl phosphate and phosphoamidate”.

For “AGCTTAGTTATCATACATCAATCTTATACAGTCTTAATCCTAGACGGATACAAGTTTGATAACAAAAAAGTTATCTCTTCAAACAAGGAGGCTGAGGCAAGAACCTTAAACTTATAAATATAATAACTACAACATATGAGTATACCTGCATTAGATAACATTATTATCAACAGATCATAAACATAACTTGAATTGACATG (double strand) [PSMU.485 (Plia)]”, the binding [1] was “no binding”.

For “ATTACCAATGTGAATCGTGTGGTCAAGTTTATCAAAGAAAAAGACGAATGAATACGAAAAAATACGCTTGTGGCAACTGCCATGGAAAATTAAGACATCAAAATCAGTCGTAAGGCTGATTTTATTCTTCTCTAAATAGTTTATACTAATAGCATCATGAGATTTGTGATTCATTTTTTAAAAAAGGGAGAGTTGTTTGT (double strand) [PSMU.753]”, the binding [1] was “binds”.

With “CCTAAGTCCACCTCCCATCTTTAATCAATAGAGTTAGCACTCTTAACAGACGACTGCTAACTTCATAATTCCATTATACTCCATTCCTAATTTCTGTCAAGAGAAAAATACAAAAAATTAGCACTCTTTCTGCTTGAGTGCTAAAAATCCGACTTAAGACTTAGTTTTATTGCTGT (double strand) [PhrcA]” the binding [1] was “binds”.

For “CTTGTTTGAAGAGATAACTTTTTTGTTATCAAACTTGTATCCGTCTAGGATTAAGACTGTATAAGATTGATGTATGATAACTAAGCTATGGCGTCTTTGATATTTGAAAAATTCTCTTTATCTTTAGTGTTATTTGGTCTAGATCAAGAGGTGAAATTTATCCTAAATTTTGATACAATGACTAATAATTGTAGAACTGAAGGAAGCCTTATG (double strand) [Alternative PSMU.485]”, the binding [1] was “no binding”.

For “GTTTATTCAAGAAATTCGCAAAGGTCCATCTCCTTTTTCTAAAGTCACTTATGTTGACGTCAATATAGCAAATTTTTCTGATTACCATGATTTCAGAATGGCCAATTAATTTATCTCAAAATCATTCTCAAGAACTATTGAGTATTTTACTAAAAAACAGTAAAATAGATAGGTATTATTAAAATCAAAGGAAGATTATC (double strand) [PSMU.1727]”, the binding [1] was “binds”.

For “TTAATTGAGGAAGATAATACTGAAGAAAAACAGTCTTCTAAAGAAAAAGAAACTGATGAGAAAGCTGACAAAAACCTTGTTTTAGAGCTGGATGATACAATTGAGCTTGAAGATTAAATAAAAATAGGTCCCAAGACCGACTCTTTATTTAATAAGCTATGCTAAGATAATATTATCCTGTAAGGAAAGAGAGATTTAAAC (double strand) [PSMU.2084]”, the binding [2] was “binds”, the binding [3] was “no binding” and the binding [1] was “binds”.

B1: IR only (16-bp) (dsDNA)
DNA 1: TCAGTCTCAAGACCGATT
DNA 2: AATCGGTCTTGAGACTGA
B1: no binding (His-LiaR [4]).

B2: A23G/T25C consensus (dsDNA)
DNA 1: ATCAAAATCAGTCTCAAGACCGGTC
DNA 2: GACCGGTCTTGAGACTGATTTTGAT
With B2 the binding signal (His-LiaR [5]) was ~1.5 fold reduction of Rmax and Req vs consensus.

B3: C13A/A17G consensus (dsDNA)
DNA 1: ATCAAAATCAGTATCAGGACCGATT
DNA 2: AATCGGTCCTGATACTGATTTTGAT
B3 was tested, and the binding signal (His-LiaR [6]) was ~4 fold reduction of Rmax vs consensus.
